Here are results for 1 molecule from article PMC10003451, “Phosphorylated Peptide Derived from the Myosin Phosphatase Target Subunit Is a Novel Inhibitor of Protein Phosphatase-1” (International Journal of Molecular Sciences, 2023).

Experiment [1] has as its target T1, recombinant protein phosphatase-1 catalytic subunit alpha (PP1cα) (UniProt P62136 1-330).
T1 construct: protein phosphatase-1 catalytic subunit, alpha isoform; recombinant; also called rPP1cα; recombinant PP1c; source: E. coli, purified from the bacterial lysate
Nature of the experiment: ITC; MicroCal ITC200; rPP1cα (0.5-2 µM) in the cell, peptide (5-20 µM) in the syringe, 19 injections of 2 µL; 25 mM Tris/HCl pH 8.0, 150 mM NaCl, 1 mM TCEP; 25 °C; one set of sites model. The note with it: both partners purified.

Experiment [2] has as its target T1, recombinant protein phosphatase-1 …. Nature of the experiment: MST; label-free (Monolith NT.LabelFree, intrinsic fluorescence of rPP1cα); 16-point two-fold peptide dilution 9.16 nM-300 µM mixed with rPP1cα 2 µM; 25 mM Tris/HCl, 100 mM NaCl, 1 mM DTT, 0.1% PEG 8000, pH 8.0. As to conditions: both partners purified.
The target in experiment [3] is Flag-MYPT1-PP1c complex (myosin phosphatase holoenzyme) ( | human (endogenous in …, UniProt O14974 1-1030; P62140 1-327). Nature of the experiment: cell-based or functional assay.
Sequence of Flag-MYPT1-PP1c complex (myosin phosphatase holoenzyme) ( | human (O14974 whole entry, chain 1 of 2): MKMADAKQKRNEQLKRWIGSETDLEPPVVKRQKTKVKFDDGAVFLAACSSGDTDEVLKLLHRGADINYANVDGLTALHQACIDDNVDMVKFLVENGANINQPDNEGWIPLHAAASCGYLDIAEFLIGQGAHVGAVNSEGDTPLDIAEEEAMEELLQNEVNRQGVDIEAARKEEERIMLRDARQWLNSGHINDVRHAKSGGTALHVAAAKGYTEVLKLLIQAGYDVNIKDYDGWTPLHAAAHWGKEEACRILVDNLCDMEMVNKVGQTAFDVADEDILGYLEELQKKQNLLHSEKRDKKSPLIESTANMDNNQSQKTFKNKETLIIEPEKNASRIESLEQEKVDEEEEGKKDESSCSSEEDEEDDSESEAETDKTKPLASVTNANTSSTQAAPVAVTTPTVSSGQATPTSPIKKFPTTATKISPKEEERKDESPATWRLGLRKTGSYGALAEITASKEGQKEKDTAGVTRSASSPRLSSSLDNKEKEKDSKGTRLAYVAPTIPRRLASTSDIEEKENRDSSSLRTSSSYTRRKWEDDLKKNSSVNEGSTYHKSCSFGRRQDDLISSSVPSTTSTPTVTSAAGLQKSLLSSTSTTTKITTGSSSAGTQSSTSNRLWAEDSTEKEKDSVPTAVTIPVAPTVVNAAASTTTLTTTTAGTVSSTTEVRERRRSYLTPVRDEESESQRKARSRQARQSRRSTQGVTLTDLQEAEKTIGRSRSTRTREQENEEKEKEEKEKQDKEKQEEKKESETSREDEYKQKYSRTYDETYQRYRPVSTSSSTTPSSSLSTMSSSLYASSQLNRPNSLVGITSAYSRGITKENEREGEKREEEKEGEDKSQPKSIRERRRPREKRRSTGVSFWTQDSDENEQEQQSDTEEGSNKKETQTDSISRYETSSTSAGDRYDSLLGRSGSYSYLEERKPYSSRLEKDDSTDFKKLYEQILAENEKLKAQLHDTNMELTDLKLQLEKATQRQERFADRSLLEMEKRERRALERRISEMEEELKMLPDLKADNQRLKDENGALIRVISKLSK
Sequence of Flag-MYPT1-PP1c complex (myosin phosphatase holoenzyme) ( | human (P62140 whole entry, chain 2 of 2): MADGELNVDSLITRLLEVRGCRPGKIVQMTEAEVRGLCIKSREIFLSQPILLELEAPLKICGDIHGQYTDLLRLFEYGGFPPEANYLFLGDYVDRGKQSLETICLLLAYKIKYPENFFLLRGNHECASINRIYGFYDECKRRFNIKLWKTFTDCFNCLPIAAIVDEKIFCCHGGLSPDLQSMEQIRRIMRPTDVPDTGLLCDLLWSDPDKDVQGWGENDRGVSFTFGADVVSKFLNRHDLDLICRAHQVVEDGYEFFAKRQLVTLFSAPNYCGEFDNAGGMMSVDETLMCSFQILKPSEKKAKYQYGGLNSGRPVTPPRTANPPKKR
Experiment [4] addresses native catalytic subunit of protein phosphatase-1 (PP1c) from rabbit skeletal muscle (rabbit, UniProt P62139 1-330). Nature of the experiment: cell-based or functional assay.

One may read the Kd as a measure of binding affinity in units of concentration.

Where no end group is shown, it is not given here. [ ]: non-standard residue; d: D form. pT = C[C@@H](OP(=O)(O)O)[C@H](N)C(=O)O

Sequence of native catalytic subunit of protein phosphatase-1 (PP1c) from rabbit skeletal muscle (P62139 whole entry): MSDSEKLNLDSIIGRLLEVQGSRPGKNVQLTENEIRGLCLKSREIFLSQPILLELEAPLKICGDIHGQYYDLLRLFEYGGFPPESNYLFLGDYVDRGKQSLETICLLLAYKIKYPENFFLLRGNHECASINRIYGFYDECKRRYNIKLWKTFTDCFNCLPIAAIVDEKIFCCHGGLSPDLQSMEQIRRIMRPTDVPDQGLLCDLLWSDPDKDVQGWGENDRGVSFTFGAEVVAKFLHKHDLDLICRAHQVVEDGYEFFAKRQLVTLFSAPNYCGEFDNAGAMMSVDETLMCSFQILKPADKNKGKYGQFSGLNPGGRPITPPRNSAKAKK
T1 sequence (P62136 whole entry, canonical isoform): as the sequence (P62139 whole entry) above

B1: P-Thr696-MYPT1^690−701 (phosphorylated peptide of the inhibitory region of myosin phosphatase target subunit-1) (peptide)
peptide: RQSRRS[pT]QGVTL
notes: myosin phosphatase target subunit-1 (MYPT1), residues 690-701, phosphorylated at Thr696; no tags; also called R^690QSRRS(pT696)QGVTL^701; P-Thr-MYPT1^690−701; source: synthetic peptide, bought: Pepmic
For B1, the Kd in experiment [1] came to 0.39 ± 0.18 µM. In addition, in experiment [2], the Kd was 33.2 ± 5.12 µM. Besides, the “IC50 of inhibition of the phosphatase activity of Flag-MYPT1-PP1c with 32P-MLC20 substrate” value in experiment [3] was found to be 12.2 µM. Also, in experiment [4], the “IC50 of inhibition of the phosphatase activity of rabbit skeletal muscle PP1c with 32P-MLC20 substrate” value was found to be 3.84 µM; the “half-life of dephosphorylation of 10 µM 32P-MLC20 by 100 nM PP1c with 0, 10, 100 and 500 µM peptide (101.6, 149.7, 227.9, 604.06 s); the peptide competes with the substrate P-MLC20 on PP1c” value was 10.1 min; the “half-life of dephosphorylation of 100 µM peptide by 100 nM PP1c in the presence of 10 µM P-MLC20 (dot blot; 87.9 min without P-MLC20)” value is roughly 103 min.
